Source: US20240150489A1 (ICHNOS SCIENCES, published 2024)

T1: cynomolgus CD47-ECD-Avi-His (cynomolgus monkey)
T1 construct: also called recombinant cynomolgus monkey CD47-avi-his protein
T1 chain: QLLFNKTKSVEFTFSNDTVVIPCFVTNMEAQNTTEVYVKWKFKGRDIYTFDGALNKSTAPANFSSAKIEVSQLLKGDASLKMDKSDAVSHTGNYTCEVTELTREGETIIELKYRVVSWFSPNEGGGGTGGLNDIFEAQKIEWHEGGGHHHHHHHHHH


Assays:
human CD47-ECD-Avi-His = target: T2, human CD47-ECD-Avi-His (human); assay: SPR, CD47 amine-coupled, Fab analyte, 1:1 fit
T2 construct: also called recombinant human CD47-avi-his protein; recombinant human CD47 protein
Description: (§1) Surface plasmon resonance (SPR) was used to measure the binding affinities of the Fab fragments for human and cynomolgus monkey CD47. Affinities were measured on a Biacore T200 instrument (Biacore, GE Healthcare) at 25° C. and analyzed with the Biacore T200 Evaluation Software (v3.1). […] Recombinant human CD47 protein and recombinant cynomolgus monkey CD47 protein were covalently immobilized to around 50 RU on flow-path 2 and flow-path 4 respectively of the Sensor Chip surface using a commercially available amine coupling kit (Biacore, GE Healthcare, catalog NO: BR100050). […] Dissociation was monitored for 5 min. After each cycle, the Series S CM5 Sensor Chip surface coated with recombinant CD47 proteins was regenerated with 30 μl of 10 mM Glycine pH 1.5 (Biacore, GE Healthcare, catalog NO: BR100354). Experimental data were processed using the 1:1 Langmuir kinetic fitting model. Measurements included zero-concentration samples for referencing. Chi², U- and residual values were used to evaluate the quality of a fit between the experimental data and individual binding models.

[1] = target: T1, cynomolgus CD47-ECD-Avi-His; assay: SPR, CD47 amine-coupled, Fab analyte, 1:1 fit
Description: as §1

[2] = target: T3, recombinant cynomolgus monkey CD38-ECD-C-his (cynomolgus monkey, UniProt Q5VAN0 45-301); assay: SPR, His-captured cyno CD38, Fab as analyte
T3 construct: Extracellular region fused to 6-His; also called cyno CD38-C-His; recombinant cynomolgus monkey CD38 protein

[3] = target: T4, recombinant biotinylated human CD38 Avitag, His Tag (Acrobiosystems, CD8-H82E7) (human, UniProt P28907 43-300, biotinylated (Avitag)); assay: SPR, biotinylated CD38 captured, Fab as analyte
T4 construct: Bought protein; also called biotinylated human CD38-avi-his protein; biotinylated recombinant human CD38 protein

[4] = target: T5, recombinant human CD38-ECD-C-his (human, UniProt P28907 43-300); assay: SPR, Fab captured as ligand, CD38 analyte
T5 construct: Extracellular region fused to 6-His, made in house; also called human CD38-C-His; recombinant human CD38 protein
Description: (§2) Affinities of the Fab to human and cynomolgus CD38 using the Fab as ligand were measured on a Biacore T200 instrument (Biacore, GE Healthcare) at 25° C. and analyzed with the BiacoreT200 Evaluation Software (v3.1). […] The affinities to human and cynomolgus monkey CD38 were assessed by immobilizing Fab fragments and using human or cynomolgus monkey CD38 protein as analyte. Around 50-200 RU of Fab was captured on flow-path 2 of a Series S CM5 Sensor Chip coupled with anti-human Fab antibodies. Human or cynomolgus monkey CD38 was injected in multi cycle kinetic at different concentrations ranging from 0.2 to 100 nM, in HBS-EP+ buffer (Biacore, GE Healthcare, catalog NO: BR100669) at a flow rate of 30 μl/min for 5 min on flow-path 1 and 2 (flow-path 1 being used as reference). Dissociation was monitored for 10 min. […] Experimental data were processed using the 1:1 Langmuir kinetic fitting model. Measurements included zero-concentration samples for referencing. Chi², U- and residual values were used to evaluate the quality of a fit between the experimental data and individual binding models.

[5] = target: T3, recombinant cynomolgus monkey …; assay: SPR, Fab captured as ligand, cyno CD38 analyte
Description: as §2

| Kd (human CD47-ECD-Avi-His) | Kd [1] | Kd [2] | Kd [3] | Kd [4] | Kd [5] | Binder |
| --- | --- | --- | --- | --- | --- | --- |
| 193 nM | 113 nM | – | – | – | – | anti-CD47-UCP02-C1 FAB (Fab, V domains shown, human IgG1 Fab) VH: QVQLVQSGAEVKKPGSSVKVSCKASGGFFSAHTISWVRQAPGQGLEWMGRITAVRGVPTYAQKFQGRVTITADESTSTAYMELSSLRSEDTAVYYCARASYGGPRYYWDGLDIWGQGTLVTVSS VL: not shown |
| 292 nM | 15.9 nM | – | – | – | – | anti-CD47-UCP01-A1 FAB (Fab, V domains shown, human IgG1 Fab) VH: QVQLVQSGAEVKKPGSSVKVSCKASGGFFRLYAFSWVRQAPGQGLEWMGGIIPTDGFVGYAQKFQGRVTITADESTSTAYMELSSLRSEDTAVYYCARSRYYRPYGEYYVVGYGFAYWGQGTLVTVSS VL: not shown |
| 455 nM | 17.8 nM | – | – | – | – | anti-CD47-UCP02-H3 FAB (Fab, V domains shown, human IgG1 Fab) VH: QVQLVQSGAEVKKPGSSVKVSCKASGGFFRLYAFSWVRQAPGQGLEWMGGIIPTDGFVGYAQKFQGRVTITADESTSTAYMELSSLRSEDTAVYYCARSRYYRPYGEYYVVGYGFAYWGQGTLVTVSS VL: not shown |
| 822 nM | 1070 nM | – | – | – | – | anti-CD47-UCP01-A2 FAB (Fab, V domains shown, human IgG1 Fab) VH: EVQLLESGGGLVQPGGSLRLSCAASGFTFSRFAMGWVRQAPGKGLEWVSIISPNGHVTAYADSVKGRFTISRDNSKNTLYLQMNSLRAEDTAVYYCARDGLSVSSQGVAFDYWGQGTLVTVSS VL: not shown |
| 1170 nM | 1260 nM | – | – | – | – | anti-CD47-UCP01-A3 FAB (Fab, V domains shown, human IgG1 Fab) VH: EVQLVESGGGLIQPGGSLRLSCAASGFTFTNSWMSWVRQAPGKGLEWVSVIYKYGFTEYADSVKGRFTISRDNSKNTLYLQMNSLRAEDTAVYYCARGSSIAAYAYAAPYRGGWMDVWGQGTLVTVSS VL: not shown |
| 1010 nM | 1120 nM | – | – | – | – | anti-CD47-UCP02-B3 FAB (Fab, V domains shown, human IgG1 Fab) VH: QVQLVQSGAEVKKPGSSVKVSCKASGGRFRLYGINWVRQAPGQGLEWMGGISPIDGYAAYAQKFQGRVTITADESTSTAYMELSSLRSEDTAVYYCARSRRPYSASASYPGYGMDVWGQGTLVTVSS VL: not shown |
| – | – | 45.4 nM | 11.9 nM | 51.6 nM | 167 nM | anti-CD38-B6-MP01-B4 FAB (Fab, V domains shown, human IgG1 Fab) VH: QVQLVQSGAEVKKPGSSVKVSCKASGYEFNTYIINWVRQAPGQGLEWMGRVIPVIDDAYYAQKFQGRVTITADESTSTAYMELSSLRSEDTAVYYCARSRGYYGSFYFDIWGQGTLVTVSS VL: not shown |
| – | – | 120 nM | 28.3 nM | 89.4 nM | 389 nM | anti-CD38-B6-MP01-H3a FAB (Fab, V domains shown, human IgG1 Fab) VH: QVQLVQSGAEVKKPGSSVKVSCKASGGPFNANIVNWIRQAPGQGLEWMGRVIPVIDDAYYAQKFQGRVTITADESTSTAYMELSSLRSEDTAVYYCARSRGYYGSFYFDIWGQGTLVTVSS VL: not shown |
| – | – | 262 nM | 425 nM | 128 nM | 534 nM | anti-CD38-B6-MP02-G11 FAB (Fab, V domains shown, human IgG1 Fab) VH: QVQLVQSGAEVKKPGSSVKVSCKASGGHTLPPIINWVRQAPGQGLEWMGRVIPVIDDAYYAQKFQGRVTITADESTSTAYMELSSLRSEDTAVYYCARSRGYYGSFYFDIWGQGTLVTVSS VL: not shown |
| – | – | 67.2 nM | 12 nM | 97.7 nM | 333 nM | anti-CD38-B6-MP02-C1 FAB (Fab, V domains shown, human IgG1 Fab) VH: QVQLVQSGAEVKKPGSSVKVSCKASGGHQLGKIINWVRQAPGQGLEWMGRVIPVIDDAYYAQKFQGRVTITADESTSTAYMELSSLRSEDTAVYYCARSRGYYGSFYFDIWGQGTLVTVSS VL: not shown |
| – | – | 130 nM | 28.9 nM | 171 nM | 330 nM | anti-CD38-B6-MP01-H3b FAB (Fab, V domains shown, human IgG1 Fab) VH: QVQLVQSGAEVKKPGSSVKVSCKASGGPFQSNIVNWIRQAPGQGLEWMGRVIPVIDDAYYAQKFQGRVTITADESTSTAYMELSSLRSEDTAVYYCARSRGYYGSFYFDIWGQGTLVTVSS VL: not shown |
| – | – | 81.2 nM | 20.1 nM | 108 nM | 528 nM | anti-CD38-B6-MP02-B10 FAB (Fab, V domains shown, human IgG1 Fab) VH: QVQLVQSGAEVKKPGSSVKVSCKASGGHNLGKIINWVRQPPGQGLEWMGRVIPVIDDAYYAQKFQGRVTITADESTSTAYMELSSLRSEDTAVYYCARSRGYYGSFYFDIWGQGTLVTVSS VL: not shown |
| 183 nM | 190 nM | – | – | – | – | anti-CD47-UCP01-G2 FAB (Fab, V domains shown, human IgG1 Fab) VH: EVQLVESGGGLIQPGGSLRLSCAASGFTVSNSYMTWVRQAPGKGLEWVSVIYKYGKTSYADSVKGRFTISRDNSKNTLYLQMNSLRAEDTAVYYCARGLTVSPYWGGAFDYWGQGTLVTVSS VL: not shown |
| 316 nM | 340 nM | – | – | – | – | anti-CD47-UCP01-B3 FAB (Fab, V domains shown, human IgG1 Fab) VH: EVQLVESGGGLIQPGGSLRLSCAASGFTFSNNYMSWVRQAPGKGLEWVSVIYKKGFTNYADSVKGRFTISRDNSKNTLYLQMNSLRAEDTAVYYCARGLSVDKYDGGPFDYWGQGTLVTVSS VL: not shown |
| 136 nM | 214 nM | – | – | – | – | anti-CD47-UCP01-G1 FAB (Fab, V domains shown, human IgG1 Fab) VH: EVQLLESGGGLVQPGGSLRLSCAASGFTFSNYAMAWVRQAPGKGLEWVSVISVEGGLTVYADSVKGRFTISRDNSKNTLYLQMNSLRAEDTAVYYCARGSRDSRGKYGAFDVWGQGTLVTVSS VL: not shown |
